For 1 molecule, Kd, koff and kon results are on record in publication PMC3920545 (Journal of molecular biology, 2012).

The assay concerns the target human Toll-like receptor 3 ectodomain (TLR3ecd) (Homo sapiens, UniProt O15455). Description: SPR.

B1: Fab1068 (Fab, V domains shown)
VH: QVQLQQPGAELVQPGTSVRLSCKASGYIFTTYWIHWVKQRPGQGLEWIGEINPNNGRINYNEKFKTKATLTVDKSSSTAYMQLSSLTSEDSAVYYCTRVGVMITTFPYWGQGTLVTVSA
VL: DIQMTQSPASLSASVGETVTITCRASGNIHNYLAWYQQKQGKSPQLLVYNAKTLADGVPSRFSGSESGTQYSLKINSLQPEDFGSYYCQHFWSTPFTFGSGTKLELK
Turning to B1, binding was characterised by a dissociation constant (Kd) of 29.1 pM, the koff is 0.000103 s⁻¹ and the on-rate (kon) is 3.54e+06 M⁻¹ s⁻¹.
